Experimental data: patent US20260242478A1 (published 2026)
Where no end group is shown, it is not given here.

Legend:
PSMA Fab [1] = biological target: T1, PSMA Fab; experiment: phage ELISA; biotinylated PSMA Fab on neutravidin plate, clonal phage supernatant, anti-M13 HRP detection, blocking buffer alone
T1 construct: also called Anti-PSMA Fab; 006 PSMA Fab
Description: (§1) Clonal phage were harvested as crude supernatants and screened via standard ELISAs. […] Prior to the addition of clonal phage. wells were incubated with blocking buffer and PSMA antigen or blocking buffer alone. Without washing or aspirating, clonal phage supernatants were then added to the wells and incubated for a short time. Wells were then washed followed by detection of bound phage using a horse radish conjugated anti-M13 antibody.

PSMA Fab [2] = biological target: T1, PSMA Fab; experiment: phage ELISA; biotinylated PSMA Fab on neutravidin plate pre-incubated with PSMA antigen as competitor, anti-M13 HRP detection;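 note: crude clonal phage supernatants tested, compared against control wells pre-incubated with blocking buffer only, without PSMA antigen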
Description: as §1

[3] = biological target: T2, Anti-PSMA Fab (SEQ ID NOs: 19, 20); experiment: phage binding ELISA; biotinylated Fab on neutravidin plate, anti-M13 HRP detection
T2 construct: Biotinylated and captured on neutravidin coated plates in the phage ELISA; also called 006 PSMA Fab
Description: as §1

[4] = biological target: T2, Anti-PSMA Fab (SEQ ID NOs: 19, 20); experiment: phage binding ELISA on captured Fab; competitor PSMA antigen pre-incubated in the wells
Description: as §1

[5] = biological target: T3, Anti-PSMA Fab (SEQ ID NOs: 19, 20); experiment: phage binding ELISA; PSMA Fab on plate pre-incubated with PSMA antigen as competitor, anti-M13 HRP detection;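 note: crude clonal phage supernatants added without washing to wells preincubated with PSMA in blocking buffer, compared with wells receiving blocking buffer only, then bound phage detected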
T3 construct: Biotinylated and captured on neutravidin-coated plates in the phage ELISA; also called 006 PSMA Fab
Description: as §1

[6] = biological target: T3, Anti-PSMA Fab (SEQ ID NOs: 19, 20); experiment: phage binding ELISA; biotinylated PSMA Fab on neutravidin plate, clonal phage supernatant, anti-M13 HRP detection;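 note: wells were preincubated with blocking buffer either containing PSMA antigen or without it before crude phage supernatant was added, briefly incubated, then washed prior to detection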
Description: as §1

PSMA Fab [7] = biological target: T4, PSMA Fab; experiment: clonal phage ELISA; biotinylated PSMA Fab on neutravidin plate; anti-M13-HRP detection; no PSMA antigen
T4 construct: also called Anti-PSMA Fab; 006 PSMA Fab
Description: as §1

PSMA Fab [8] = biological target: T4, PSMA Fab; experiment: clonal phage ELISA; biotinylated PSMA Fab on neutravidin plate; wells pre-incubated with PSMA antigen as competitor; anti-M13-HRP detection
Description: as §1

| Binder | Phage binding ELISA signal, Anti-PSMA Fab (PSMA Fab [1]) | Phage binding ELISA signal, Anti-PSMA Fab in the presence of PSMA antigen (PSMA Fab [2]) | Anti-PSMA Fab signal in the presence of PSMA [5] | Anti-PSMA Fab (SEQ ID NOs: 19, 20) signal [6] | other results |
| --- | --- | --- | --- | --- | --- |
| AANWCTPPWMCLGF (Peptide-180 library clone, tested as clonal phage supernatant) [Phage-2359] | 1.42 | 0.0888 |  |  |  |
| GLGWCTPTWMCEGF (Peptide-180 library clone, tested as clonal phage supernatant) [Phage-2369] | 1.4 | 0.0727 |  |  |  |
| GEIWCIPAWMCNTG (Clonal phage of the peptide-180 library, tested as crude phage supernatant; not shown: fused to pIII of the bacteriophage) [Phage-2200] |  |  |  |  | Anti-PSMA Fab (SEQ ID NOs: 19, 20) signal [3]: 1.62; Anti-PSMA Fab signal in the presence of PSMA [4]: 0.0549 |
| DFKWCIPTWMCEVY [Phage-2238 peptide (SEQ ID NO: 2554)] |  |  | 0.0768 | 1.56 |  |
| EEKWCRPAWMCEHA (Peptide-180 library clone, tested as clonal phage supernatant) [Phage-2360] | 1.42 | 0.0625 |  |  |  |
| VETWCIPHWMCAGF (cysteine pairing not given here; also: displayed as fusion to phage pIII) [Phage-2453] |  |  |  |  | Phage binding ELISA signal, Anti-PSMA Fab (PSMA Fab [7]): 1.27; Phage binding ELISA signal, Anti-PSMA Fab with PSMA antigen (PSMA Fab [8]): 0.0685 |
| AERWCIPDWMCNVI (Peptide-180 library clone, tested as clonal phage supernatant) [Phage-2363] | 1.41 | 0.0567 |  |  |  |
| LEKWCIPSWMCSTL (Peptide-180 library clone, tested as clonal phage supernatant) [Phage-2370] | 1.4 | 0.0829 |  |  |  |
| LENWCKPAWMCWGM [Phage-2248 peptide (SEQ ID NO: 2564)] |  |  | 0.0811 | 1.55 |  |
| GEIWCTPKWMCDGF [Phage-2246 peptide (SEQ ID NO: 2562)] |  |  | 0.0716 | 1.55 |  |
| ITPWCIPPWMCPGP (Peptide-180 library clone, tested as clonal phage supernatant) [Phage-2361] | 1.42 | 0.0746 |  |  |  |
| LMNWCIPPWMCSAQ [Phage-2242 peptide (SEQ ID NO: 2558)] |  |  | 0.0907 | 1.56 |  |
| WDHLCKPRWMCDGI (cysteine pairing not given here; also: displayed as fusion to phage pIII) [Phage-2451] |  |  |  |  | Phage binding ELISA signal, Anti-PSMA Fab (PSMA Fab [7]): 1.28; Phage binding ELISA signal, Anti-PSMA Fab with PSMA antigen (PSMA Fab [8]): 0.0744 |
| VEKWCIPSWMCQEL (Clonal phage of the peptide-180 library, tested as crude phage supernatant; not shown: fused to pIII of the bacteriophage) [Phage-2199] |  |  |  |  | Anti-PSMA Fab (SEQ ID NOs: 19, 20) signal [3]: 1.62; Anti-PSMA Fab signal in the presence of PSMA [4]: 0.0642 |
| VDRLCTPEWMCSGF (Clonal phage of the peptide-180 library, tested as crude phage supernatant; not shown: fused to pIII of the bacteriophage) [Phage-2205] |  |  |  |  | Anti-PSMA Fab (SEQ ID NOs: 19, 20) signal [3]: 1.61; Anti-PSMA Fab signal in the presence of PSMA [4]: 0.0763 |
| DLKLCKPEWMCNGM (Clonal phage of the peptide-180 library, tested as crude phage supernatant; not shown: fused to pIII of the bacteriophage) [Phage-2204] |  |  |  |  | Anti-PSMA Fab (SEQ ID NOs: 19, 20) signal [3]: 1.61; Anti-PSMA Fab signal in the presence of PSMA [4]: 0.0815 |
| GTNWCTPAWMCAGF (cysteine pairing not given here; also: displayed on bacteriophage as fusion to pIII) [Phage-2251 peptide (SEQ ID NO: 2567)] |  |  | 0.061 | 1.55 |  |
| LVKLCIPEWMCSEG [Phage-2244 peptide (SEQ ID NO: 2560)] |  |  | 0.0711 | 1.56 |  |
| IIKWCTPEWMCVGF [Phage-2249 peptide (SEQ ID NO: 2565)] |  |  | 0.0748 | 1.55 |  |

| Binder | Phage binding ELISA signal, Anti-PSMA Fab (PSMA Fab [1]) | Phage binding ELISA signal, Anti-PSMA Fab in the presence of PSMA antigen (PSMA Fab [2]) | Anti-PSMA Fab signal in the presence of PSMA [5] | Anti-PSMA Fab (SEQ ID NOs: 19, 20) signal [6] | other results |
| --- | --- | --- | --- | --- | --- |
| HDKWCIPEWMCISL (Clonal phage of the peptide-180 library, tested as crude phage supernatant; not shown: fused to pIII of the bacteriophage) [Phage-2202] |  |  |  |  | Anti-PSMA Fab (SEQ ID NOs: 19, 20) signal [3]: 1.62; Anti-PSMA Fab signal in the presence of PSMA [4]: 0.075 |
| DGVWCVPQWMCDGY (Peptide-180 library clone, tested as clonal phage supernatant) [Phage-2368] | 1.4 | 0.0722 |  |  |  |
| GANLCIPPWMCLSS (Peptide-180 library clone, tested as clonal phage supernatant) [Phage-2364] | 1.41 | 0.0789 |  |  |  |
| EYNWCTPRWMCKGF (Clonal phage of the peptide-180 library, tested as crude phage supernatant; not shown: fused to pIII of the bacteriophage) [Phage-2201] |  |  |  |  | Anti-PSMA Fab (SEQ ID NOs: 19, 20) signal [3]: 1.62; Anti-PSMA Fab signal in the presence of PSMA [4]: 0.0617 |
| VDKWCIPSWMCEFY (Peptide-180 library clone, tested as clonal phage supernatant) [Phage-2371] | 1.4 | 0.0767 |  |  |  |
| LMKWCIPQWMCQLD [Phage-2243 peptide (SEQ ID NO: 2559)] |  |  | 0.249 | 1.56 |  |
| SVKMCIPEWMCENI [Phage-2452] |  |  |  |  | Phage binding ELISA signal, Anti-PSMA Fab (PSMA Fab [7]): 1.28; Phage binding ELISA signal, Anti-PSMA Fab with PSMA antigen (PSMA Fab [8]): 0.0646 |
| INKWCIPEWMCAAM (Peptide-180 library clone, tested as clonal phage supernatant) [Phage-2366] | 1.41 | 0.0668 |  |  |  |
| IDKWCIPAWMCEST [Phage-2250 peptide (SEQ ID NO: 2566)] |  |  | 0.105 | 1.55 |  |
| SEKLCIPEWMCAQA (cysteine pairing not given here; also: displayed on bacteriophage as fusion to pIII) [Phage-2245 peptide (SEQ ID NO: 2561)] |  |  | 0.0686 | 1.56 |  |
| HPNWCTPPWMCLGL [Phage-2239 peptide (SEQ ID NO: 2555)] |  |  | 0.0699 | 1.56 |  |
| MERWCIPEWMCERT (Clonal phage of the peptide-180 library, tested as crude phage supernatant; not shown: fused to pIII of the bacteriophage) [Phage-2203] |  |  |  |  | Anti-PSMA Fab (SEQ ID NOs: 19, 20) signal [3]: 1.61; Anti-PSMA Fab signal in the presence of PSMA [4]: 0.072 |
| AEKLCKPAWMCNNM (Peptide-180 library clone, tested as clonal phage supernatant) [Phage-2365] | 1.41 | 0.0752 |  |  |  |
| QVQWCIPPWMCLED (Peptide-180 library clone, tested as clonal phage supernatant) [Phage-2372] | 1.4 | 0.0887 |  |  |  |
| ADKWCIPEWMCQQD [Phage-2252 peptide (SEQ ID NO: 2568)] |  |  | 0.0665 | 1.55 |  |
| NIIRCTPAWMCDGF [Phage-2247 peptide (SEQ ID NO: 2563)] |  |  | 0.0619 | 1.55 |  |
| VVKWCIPTWMCENS [Phage-2241 peptide (SEQ ID NO: 2557)] |  |  | 0.0889 | 1.56 |  |
| YEKWCIPAWMCHVA (Peptide-180 library clone, tested as clonal phage supernatant) [Phage-2367] | 1.41 | 0.0747 |  |  |  |
| EEKMCKPSWMCQLF (Peptide-180 library clone, tested as clonal phage supernatant) [Phage-2362] | 1.41 | 0.09 |  |  |  |
